One block for each binder: values may come before it. Numbered stars: 1 amine (or outer) side, 2 acyl side, 3 side chain; on linkers, the order of the positions; unused ones are H or OH. Bridge positions count the residues as written; N and C are the ends. Side chains are listed from the residue outwards. Ends that are not written are not given here. * marks the point of attachment. C20 diacid = O=C(O)CCCCCCCCCCCCCCCCCCC(=O)*; γGlu = O=C(O)[C@H](CCC(=O)[*:2])N[*:1]; AEEA = NCCOCCOCC(=O)O
Target: T1, human calcitonin receptor (human, UniProt P30988 25-474)
T1 sequence (looked up): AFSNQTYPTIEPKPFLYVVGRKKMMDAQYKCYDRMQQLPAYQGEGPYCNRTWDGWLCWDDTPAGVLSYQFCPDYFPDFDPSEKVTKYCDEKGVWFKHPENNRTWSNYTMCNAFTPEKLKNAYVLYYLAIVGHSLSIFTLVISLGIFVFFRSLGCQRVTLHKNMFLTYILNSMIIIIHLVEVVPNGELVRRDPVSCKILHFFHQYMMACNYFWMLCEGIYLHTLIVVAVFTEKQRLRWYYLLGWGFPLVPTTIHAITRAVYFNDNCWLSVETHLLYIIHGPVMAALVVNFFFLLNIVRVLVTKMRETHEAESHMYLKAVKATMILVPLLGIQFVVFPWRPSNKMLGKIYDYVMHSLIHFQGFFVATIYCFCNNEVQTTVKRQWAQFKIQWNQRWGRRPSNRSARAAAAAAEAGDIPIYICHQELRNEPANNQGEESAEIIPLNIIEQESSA
Test: cell-based or functional assay

B1: N^ε1-[2-[2-[2-[[(4S)-4-carboxy-4-(19-carboxynonadecanoylamino)butanoyl]amino]ethoxy]ethoxy]acetyl]-[Lys14,Arg17,Pro21,Pro27,Pro31]-h-amylin (peptide)
peptide: K([AEEA-γGlu-C20 diacid])CNTATCATQRLAKFLRHSSPNFGAIPSSTPVGSNTY-NH2
modifications: disulfide 2-7; N-terminus assumed
SMILES: CC[C@H](C)[C@H](NC(=O)[C@H](C)NC(=O)CNC(=O)[C@H](Cc1ccccc1)NC(=O)[C@H](CC(N)=O)NC(=O)[C@@H]1CCCN1C(=O)[C@H](CO)NC(=O)[C@H](CO)NC(=O)[C@H](Cc1c[nH]cn1)NC(=O)[C@H](CCCNC(=N)N)NC(=O)[C@H](CC(C)C)NC(=O)[C@H](Cc1ccccc1)NC(=O)[C@H](CCCCN)NC(=O)[C@H](C)NC(=O)[C@H](CC(C)C)NC(=O)[C@H](CCCNC(=N)N)NC(=O)[C@H](CCC(N)=O)NC(=O)[C@@H](NC(=O)[C@H](C)NC(=O)[C@@H]1CSSC[C@H](NC(=O)[C@@H](N)CCCCNC(=O)COCCOCCNC(=O)CC[C@H](NC(=O)CCCCCCCCCCCCCCCCCCC(=O)O)C(=O)O)C(=O)N[C@@H](CC(N)=O)C(=O)N[C@@H]([C@@H](C)O)C(=O)N[C@@H](C)C(=O)N[C@@H]([C@@H](C)O)C(=O)N1)[C@@H](C)O)C(=O)N1CCC[C@H]1C(=O)N[C@@H](CO)C(=O)N[C@@H](CO)C(=O)N[C@H](C(=O)N1CCC[C@H]1C(=O)N[C@H](C(=O)NCC(=O)N[C@@H](CO)C(=O)N[C@@H](CC(N)=O)C(=O)N[C@H](C(=O)N[C@@H](Cc1ccc(O)cc1)C(N)=O)[C@@H](C)O)C(C)C)[C@@H](C)O
notes: analogue of human amylin; also called compound 74
hCTR funct. EC50: 37.5 nM

B2: N^ε1-[2-[2-[2-[[(4S)-4-carboxy-4-(19-carboxynonadecanoylamino)butanoyl]amino]ethoxy]ethoxy]acetyl]-[Thr14,Arg17,Pro21,Pro27,Pro31]-h-amylin (peptide)
peptide: K([AEEA-γGlu-C20 diacid])CNTATCATQRLATFLRHSSPNFGAIPSSTPVGSNTY-NH2
modifications: disulfide 2-7; N-terminus assumed
SMILES: CC[C@H](C)[C@H](NC(=O)[C@H](C)NC(=O)CNC(=O)[C@H](Cc1ccccc1)NC(=O)[C@H](CC(N)=O)NC(=O)[C@@H]1CCCN1C(=O)[C@H](CO)NC(=O)[C@H](CO)NC(=O)[C@H](Cc1c[nH]cn1)NC(=O)[C@H](CCCNC(=N)N)NC(=O)[C@H](CC(C)C)NC(=O)[C@H](Cc1ccccc1)NC(=O)[C@@H](NC(=O)[C@H](C)NC(=O)[C@H](CC(C)C)NC(=O)[C@H](CCCNC(=N)N)NC(=O)[C@H](CCC(N)=O)NC(=O)[C@@H](NC(=O)[C@H](C)NC(=O)[C@@H]1CSSC[C@H](NC(=O)[C@@H](N)CCCCNC(=O)COCCOCCNC(=O)CC[C@H](NC(=O)CCCCCCCCCCCCCCCCCCC(=O)O)C(=O)O)C(=O)N[C@@H](CC(N)=O)C(=O)N[C@@H]([C@@H](C)O)C(=O)N[C@@H](C)C(=O)N[C@@H]([C@@H](C)O)C(=O)N1)[C@@H](C)O)[C@@H](C)O)C(=O)N1CCC[C@H]1C(=O)N[C@@H](CO)C(=O)N[C@@H](CO)C(=O)N[C@H](C(=O)N1CCC[C@H]1C(=O)N[C@H](C(=O)NCC(=O)N[C@@H](CO)C(=O)N[C@@H](CC(N)=O)C(=O)N[C@H](C(=O)N[C@@H](Cc1ccc(O)cc1)C(N)=O)[C@@H](C)O)C(C)C)[C@@H](C)O
notes: analogue of human amylin; also called compound 75
hCTR funct. EC50: 9.07 nM

B3: N^ε1-[2-[2-[2-[[(4S)-4-carboxy-4-(19-carboxynonadecanoylamino)butanoyl]amino]ethoxy]ethoxy]acetyl]-[Ser14,Arg17,Pro21,Pro27,Pro31]-h-amylin (peptide)
peptide: K([AEEA-γGlu-C20 diacid])CNTATCATQRLASFLRHSSPNFGAIPSSTPVGSNTY-NH2
modifications: disulfide 2-7; N-terminus assumed
SMILES: CC[C@H](C)[C@H](NC(=O)[C@H](C)NC(=O)CNC(=O)[C@H](Cc1ccccc1)NC(=O)[C@H](CC(N)=O)NC(=O)[C@@H]1CCCN1C(=O)[C@H](CO)NC(=O)[C@H](CO)NC(=O)[C@H](Cc1c[nH]cn1)NC(=O)[C@H](CCCNC(=N)N)NC(=O)[C@H](CC(C)C)NC(=O)[C@H](Cc1ccccc1)NC(=O)[C@H](CO)NC(=O)[C@H](C)NC(=O)[C@H](CC(C)C)NC(=O)[C@H](CCCNC(=N)N)NC(=O)[C@H](CCC(N)=O)NC(=O)[C@@H](NC(=O)[C@H](C)NC(=O)[C@@H]1CSSC[C@H](NC(=O)[C@@H](N)CCCCNC(=O)COCCOCCNC(=O)CC[C@H](NC(=O)CCCCCCCCCCCCCCCCCCC(=O)O)C(=O)O)C(=O)N[C@@H](CC(N)=O)C(=O)N[C@@H]([C@@H](C)O)C(=O)N[C@@H](C)C(=O)N[C@@H]([C@@H](C)O)C(=O)N1)[C@@H](C)O)C(=O)N1CCC[C@H]1C(=O)N[C@@H](CO)C(=O)N[C@@H](CO)C(=O)N[C@H](C(=O)N1CCC[C@H]1C(=O)N[C@H](C(=O)NCC(=O)N[C@@H](CO)C(=O)N[C@@H](CC(N)=O)C(=O)N[C@H](C(=O)N[C@@H](Cc1ccc(O)cc1)C(N)=O)[C@@H](C)O)C(C)C)[C@@H](C)O
notes: analogue of human amylin; also called compound 73
hCTR funct. EC50: 0.961 nM

B5: N^ε1-[(4S)-4-carboxy-4-(19-carboxynonadecanoylamino)butanoyl]-[Arg17,Pro21,Pro27,Glu35]-h-amylin (peptide)
peptide: K([γGlu-C20 diacid])CNTATCATQRLANFLRHSSPNFGAIPSSTNVGSETY-NH2
modifications: disulfide 2-7; N-terminus assumed
SMILES: CC[C@H](C)[C@H](NC(=O)[C@H](C)NC(=O)CNC(=O)[C@H](Cc1ccccc1)NC(=O)[C@H](CC(N)=O)NC(=O)[C@@H]1CCCN1C(=O)[C@H](CO)NC(=O)[C@H](CO)NC(=O)[C@H](Cc1c[nH]cn1)NC(=O)[C@H](CCCNC(=N)N)NC(=O)[C@H](CC(C)C)NC(=O)[C@H](Cc1ccccc1)NC(=O)[C@H](CC(N)=O)NC(=O)[C@H](C)NC(=O)[C@H](CC(C)C)NC(=O)[C@H](CCCNC(=N)N)NC(=O)[C@H](CCC(N)=O)NC(=O)[C@@H](NC(=O)[C@H](C)NC(=O)[C@@H]1CSSC[C@H](NC(=O)[C@@H](N)CCCCNC(=O)CC[C@H](NC(=O)CCCCCCCCCCCCCCCCCCC(=O)O)C(=O)O)C(=O)N[C@@H](CC(N)=O)C(=O)N[C@@H]([C@@H](C)O)C(=O)N[C@@H](C)C(=O)N[C@@H]([C@@H](C)O)C(=O)N1)[C@@H](C)O)C(=O)N1CCC[C@H]1C(=O)N[C@@H](CO)C(=O)N[C@@H](CO)C(=O)N[C@H](C(=O)N[C@@H](CC(N)=O)C(=O)N[C@H](C(=O)NCC(=O)N[C@@H](CO)C(=O)N[C@@H](CCC(=O)O)C(=O)N[C@H](C(=O)N[C@@H](Cc1ccc(O)cc1)C(N)=O)[C@@H](C)O)C(C)C)[C@@H](C)O
notes: analogue of human amylin; also called compound 27
hCTR funct. EC50: 3 nM

Now from value to binder:

hCTR funct. EC50: 9.33 nM
B4: N^ε1-[(4S)-4-carboxy-4-(19-carboxynonadecanoylamino)butanoyl]-[Arg14,Arg17,Pro21,Pro27,Pro34]-h-amylin (peptide)
peptide: K([γGlu-C20 diacid])CNTATCATQRLARFLRHSSPNFGAIPSSTNVGPNTY-NH2
modifications: disulfide 2-7; N-terminus assumed
SMILES: CC[C@H](C)[C@H](NC(=O)[C@H](C)NC(=O)CNC(=O)[C@H](Cc1ccccc1)NC(=O)[C@H](CC(N)=O)NC(=O)[C@@H]1CCCN1C(=O)[C@H](CO)NC(=O)[C@H](CO)NC(=O)[C@H](Cc1c[nH]cn1)NC(=O)[C@H](CCCNC(=N)N)NC(=O)[C@H](CC(C)C)NC(=O)[C@H](Cc1ccccc1)NC(=O)[C@H](CCCNC(=N)N)NC(=O)[C@H](C)NC(=O)[C@H](CC(C)C)NC(=O)[C@H](CCCNC(=N)N)NC(=O)[C@H](CCC(N)=O)NC(=O)[C@@H](NC(=O)[C@H](C)NC(=O)[C@@H]1CSSC[C@H](NC(=O)[C@@H](N)CCCCNC(=O)CC[C@H](NC(=O)CCCCCCCCCCCCCCCCCCC(=O)O)C(=O)O)C(=O)N[C@@H](CC(N)=O)C(=O)N[C@@H]([C@@H](C)O)C(=O)N[C@@H](C)C(=O)N[C@@H]([C@@H](C)O)C(=O)N1)[C@@H](C)O)C(=O)N1CCC[C@H]1C(=O)N[C@@H](CO)C(=O)N[C@@H](CO)C(=O)N[C@H](C(=O)N[C@@H](CC(N)=O)C(=O)N[C@H](C(=O)NCC(=O)N1CCC[C@H]1C(=O)N[C@@H](CC(N)=O)C(=O)N[C@H](C(=O)N[C@@H](Cc1ccc(O)cc1)C(N)=O)[C@@H](C)O)C(C)C)[C@@H](C)O
notes: analogue of human amylin; also called compound 65

hCTR funct. EC50: 5.13 nM
B6: N^ε1-[(4S)-4-carboxy-4-(19-carboxynonadecanoylamino)butanoyl]-[Arg14,Arg17,Pro21,Pro27,Pro31]-h-amylin (peptide)
peptide: K([γGlu-C20 diacid])CNTATCATQRLARFLRHSSPNFGAIPSSTPVGSNTY-NH2
modifications: disulfide 2-7; N-terminus assumed
SMILES: CC[C@H](C)[C@H](NC(=O)[C@H](C)NC(=O)CNC(=O)[C@H](Cc1ccccc1)NC(=O)[C@H](CC(N)=O)NC(=O)[C@@H]1CCCN1C(=O)[C@H](CO)NC(=O)[C@H](CO)NC(=O)[C@H](Cc1c[nH]cn1)NC(=O)[C@H](CCCNC(=N)N)NC(=O)[C@H](CC(C)C)NC(=O)[C@H](Cc1ccccc1)NC(=O)[C@H](CCCNC(=N)N)NC(=O)[C@H](C)NC(=O)[C@H](CC(C)C)NC(=O)[C@H](CCCNC(=N)N)NC(=O)[C@H](CCC(N)=O)NC(=O)[C@@H](NC(=O)[C@H](C)NC(=O)[C@@H]1CSSC[C@H](NC(=O)[C@@H](N)CCCCNC(=O)CC[C@H](NC(=O)CCCCCCCCCCCCCCCCCCC(=O)O)C(=O)O)C(=O)N[C@@H](CC(N)=O)C(=O)N[C@@H]([C@@H](C)O)C(=O)N[C@@H](C)C(=O)N[C@@H]([C@@H](C)O)C(=O)N1)[C@@H](C)O)C(=O)N1CCC[C@H]1C(=O)N[C@@H](CO)C(=O)N[C@@H](CO)C(=O)N[C@H](C(=O)N1CCC[C@H]1C(=O)N[C@H](C(=O)NCC(=O)N[C@@H](CO)C(=O)N[C@@H](CC(N)=O)C(=O)N[C@H](C(=O)N[C@@H](Cc1ccc(O)cc1)C(N)=O)[C@@H](C)O)C(C)C)[C@@H](C)O
notes: analogue of human amylin; also called compound 63

Reference: patent US20140087995A1 (published 2014)
